Results on nine substances are retold here after article PMC13381803, “Phage-encoded factor stimulates DNA degradation by the Hna anti-phage defense system” (Nature Communications, 2026).

Broadly, the stoichiometry N is a count of units in the complex or per binding partner.

Assay [1] has as its target Hna with a C-terminal GFP tag. Kind of assay: fluorescence anisotropy. To be noted: read off a plot. In general terms: Polarisation of emitted light reports the rotation of a fluorescent probe.
Assay [2] addresses 5 A SSB escape mutant E201K (phage 5 A (T7-like podovirus)). The assay can be described thus: native gel or EMSA; native stoichiometry of wild-type 5 A SSB and escape mutants in the absence of DNA; each protein allowed to oligomerize for 1 hour; non-denaturing 4-20% Tris-glycine gel, 4 °C; part of the wild-type sample melted at 95 °C for the monomeric state.
Assay [3] has as its target 5 A SSB escape mutant E38K (phage 5 A (T7-like podovirus)). Described as above.
For assay [4], the target named is phage-encoded single-stranded DNA-binding protein of phage 5 A (5 A SSB), wild type (phage 5 A (T7-like podovirus)). Described as above.
In assay [5] the target is Hna (helicase-nuclease abortive infection), wild type, Sinorhizobium meliloti (Sinorhizobium meliloti).
For assay [6], the target named is Hna (helicase-nuclease abortive infection), wild type, Sinorhizobium meliloti. Kind of assay: fluorescence anisotropy competition. To be noted: in the presence of ATP; cold SSB added to the saturated Hna/GFP-SSB heterodimer; value read at the highest cold SSB concentration (about 2e3 nM); lower …; parent: est. 75; read off a plot.
The target of assay [7] is 5 A SSB escape mutant E49A (phage 5 A (T7-like podovirus)). Kind of assay: native gel or EMSA; native stoichiometry of wild-type 5 A SSB and escape mutants in the absence of DNA; each protein allowed to oligomerize for 1 hour; non-denaturing 4-20% Tris-glycine gel, 4 °C; part of the wild-type sample melted at 95 °C for the monomeric state. A general note: Mobility shift assays separate free from complexed probe on a gel.

Where [8] appears, read: saturating GFP-Hna homodimer, value read at the highest SSB concentration (about 2e4 nM), starting anisotropy about 100-110 mA, lower anisotropy = more …, parent: est. 22.

For the substance “phage-encoded single-stranded DNA-binding protein of phage 5 A (5 A SSB), wild type E38K”, in assay [1] (setting [8]), the response is 99 mA.

In the case of “5 A SSB escape mutant E201K (natural protein)”, in assay [2], the stoichiometry N turned out to be 4.

Substance “5 A SSB escape mutant E38K (natural protein)” showed a stoichiometry N in assay [3] of 4. On to “Hna (helicase-nuclease abortive infection), wild type, Sinorhizobium meliloti T30A; D31A; P34A”, for which the response in assay [1] (+ATP, GFP-Hna at fixed concentration, value is the plateau of the fitted curve at high cold Hna concentration, parent: est. 98) was determined as 10 mA. For the substance “phage-encoded single-stranded DNA-binding protein of phage 5 A (5 A SSB), wild type (natural protein)”, the stoichiometry N in assay [4] was 2. Consider “phage-encoded single-stranded DNA-binding protein of phage 5 A (5 A SSB), wild type E49A”, for which the response in assay [1] (setting [8]) stood at 65 mA. In the case of “Hna (helicase-nuclease abortive infection), wild type, Sinorhizobium meliloti (enzyme)”, the ssDNA cleavage rate of the Hna dimer mutant (T30A/D31A/P34A) compared to wild-type Hna, capillary electrophoresis in assay [5] is over 10 fold. Take “phage-encoded single-stranded DNA-binding protein of phage 5 A (5 A SSB), wild type E201K”: the results for the response in assay [1] (setting [8]) and in assay [6] were 110 mA and 130 mA, respectively. In turn, “5 A SSB escape mutant E49A (natural protein)” had a stoichiometry N in assay [7] of 2.
